Laboratory results: article PMC5059438

Biological target: Ops*, an active form of opsin which is similar to metarhodopsin II (UniProt P02699)

## Ops*, an active form of opsin which is similar to metarhodopsin II (from UniProt P02699 1-348) (receptor)
  molar mass of functionally reconstituted scramblase, from the fit of p(≥1 scramblase) versus PPR* (dithionite/NBD-PC scramblase assay on proteoliposomes): 90800 g/mol
